Experimental data taken from patent CN114790241A.

Legend:
[1] = target: 食蟹猴TIGIT (Cyno-TIGIT) on 293T-Cyno-TIGIT cells (cynomolgus monkey (Macaca fascicularis)); experiment: flow cytometry on 293T-Cyno-TIGIT cells, secondary antibody alone (background control)
[2] = target: T1, 人TIGIT (hTIGIT) on 293T-hTIGIT cells (human) (UniProt Q495A1); experiment: flow cytometry on 293T-hTIGIT cells, secondary antibody alone (background control)
T1 sequence: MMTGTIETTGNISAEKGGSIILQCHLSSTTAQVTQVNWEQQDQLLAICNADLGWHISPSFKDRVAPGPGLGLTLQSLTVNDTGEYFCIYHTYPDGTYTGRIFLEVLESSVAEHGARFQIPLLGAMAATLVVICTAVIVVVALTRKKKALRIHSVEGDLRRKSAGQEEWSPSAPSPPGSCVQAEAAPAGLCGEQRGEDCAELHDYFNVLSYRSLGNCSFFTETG

[3] = target: T2, TIGIT-hFc蛋白(人TIGIT胞外区与人IgG1 Fc的融合蛋白) (human) (UniProt Q495A1); experiment: flow cytometry, blocking of TIGIT-hFc binding to 293T-hPVR cells, hybridoma supernatant
T2 sequence: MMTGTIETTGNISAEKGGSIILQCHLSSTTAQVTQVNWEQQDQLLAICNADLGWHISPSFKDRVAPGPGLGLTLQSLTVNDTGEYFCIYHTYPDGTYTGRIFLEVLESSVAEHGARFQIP

[4] = target: 食蟹猴TIGIT (Cyno-TIGIT) on 293T-Cyno-TIGIT cells (cynomolgus monkey (Macaca fascicularis)); experiment: flow cytometry on 293T-Cyno-TIGIT cells, 50 uL hybridoma supernatant, APC anti-mouse IgG Fc
[5] = target: T2, TIGIT-hFc蛋白(人TIGIT胞外区与人IgG1 Fc的融合蛋白) (human); experiment: flow cytometry, signal on 293T-hPVR cells with 500 ng TIGIT-hFc and 50 uL hybridoma supernatant
[6] = target: T1, 人TIGIT (hTIGIT) on 293T-hTIGIT cells (human); experiment: flow cytometry on 293T-hTIGIT cells, 0.5 ug antibody, APC anti-human IgG Fc
[7] = target: T1, 人TIGIT (hTIGIT) on 293T-hTIGIT cells (human); experiment: flow cytometry on 293T-hTIGIT cells, 1.0 ug antibody, APC anti-human IgG Fc
[8] = target: T1, 人TIGIT (hTIGIT) on 293T-hTIGIT cells (human); experiment: flow cytometry on 293T-hTIGIT cells, 1.7 ug antibody, APC anti-human IgG Fc

Sequence of 食蟹猴TIGIT (Cyno-TIGIT) on 293T-Cyno-TIGIT cells (cynomolgus monkey (Macaca fascicularis)) (chain, as listed by the source limits assumed): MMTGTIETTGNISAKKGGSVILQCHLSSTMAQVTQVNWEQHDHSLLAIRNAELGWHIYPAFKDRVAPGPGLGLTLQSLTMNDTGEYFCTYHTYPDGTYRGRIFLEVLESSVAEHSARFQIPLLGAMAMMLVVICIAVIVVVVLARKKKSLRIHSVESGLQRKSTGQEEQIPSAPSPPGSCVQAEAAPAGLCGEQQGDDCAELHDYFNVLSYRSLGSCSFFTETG

Molecule “APC羊抗小鼠IgG Fc二抗(Biolegend, Cat405308) (antibody)” has a Geom.Mean [1] of 1920.

“APC抗人IgG Fc二抗(Biolegend, Cat409306) (antibody)” was tested, and the Geom.Mean [2] was 405.

B1: 鼠源抗TIGIT抗体(杂交瘤18A12分泌的抗体) (antibody, V domains shown)
VH: QVQLLESGGGLVQPGGSMKLSCVVSGFTFSNYWMNWVRQSPEKGLEWVAEIRLKSNNYATHYAESVKGRFAISRDDSKSSVYLQMNNLRAEDTGVYYCTRLYYGNYFDYWGQGTTLTVSS
VL: DIQMTQSPASLSASVGETVTITCRASENTYSYLAWYQQKQGKSPQLLVYNAKTLAEGVPSRFSGSGSGTQFSLKITSLQPEDFGSYYCQHHYAFSYTFGGGTKLEMK
Molecule B1 has a 阻断率% [3] of 80.9%, a Geom.Mean [4] of 20000 and a Geom.Mean [5] of 2760.

B2: 抗TIGIT嵌合抗体(IgG1亚型) (antibody, V domains shown)
VH: B1 VH
VL: DIQMTQSPASLSASVGETVTITCRASENTYSYLAWYQQKQGKSPQLLVYNAKTLAEGVPSRFSGSGSGTQFSLKITSLQPEDFGSYYCQHHYAFSYTFGGGTKLEMKR
B2 was tested, and the Geom.Mean [6] was 8790, the Geom.Mean [7] was 10300 and the Geom.Mean [8] was 12200.
